Measured values taken from article PMC12751338, “Biochemical and functional characterization of orf virus decapping protein OV71” (Virology Journal, 2025).

How the values were obtained:
[1] = test system: his-OV71 (Orf virus (Taiping strain)); assay: competition; details: EMSA: 20 mM HEPES, 10 mM EDTA, 1 M KCl, 1 mM DTT, 80 ug/mL BSA, 50% glycerol (so in the source), on ice 15 min, 0.05 pmol RNA. Pulldown: 100 mM K acetate
[2] = target: T1, OV71 (ORFV071; his-OV71) (Orf virus strain SA00, UniProt Q6TVP9); assay: competition in decapping of radiolabeled capped RNA, TLC; type: biochemical; details: 206-nt cap-labeled RNA substrate; 4 pmol enzyme; 2 mM MgCl2, 0.5 mM MnCl2, pH 7.5, 37 °C; added product as competitor
T1 construct: His-tagged, pET24a (NdeI/XhoI), E. coli BL21(DE3), Talon cobalt resin; approx. 25 kDa

Compound	IC50 [1] [pmol]	relative decapping ratio [2]
206 nt uncapped RNA competitor	40	
C[n+]1cn([C@@H]2O[C@H](COP(=O)(O)OP(=O)(O)O)[C@@H](O)[C@H]2O)c2nc(N)[nH]c(=O)c21 [m^7GDP]		decapping product m^7GDP modestly inhibited the decapping (Fig. 3D and E), indicating weak affinity
